*1 amine or outer side, *2 acyl side, *3 side chain or, on linkers, in order; H or OH if unused. Where no end group is shown, it is not given here. Side-chain parts run from the residue outwards. [ ]: non-standard residue; d: D form. The star is where a group is joined. C20 diacid = O=C(O)CCCCCCCCCCCCCCCCCCC(=O)*; C18 diacid = O=C(O)CCCCCCCCCCCCCCCCC(=O)*; γGlu = O=C(O)[C@H](CCC(=O)[*:2])N[*:1]; C14 diacid = O=C(O)CCCCCCCCCCCCC(=O)*; NMeI = CC[C@H](C)[C@H](NC)C(=O)O; Pentanoyl = CCCCC(=O)*; Aib = CC(C)(N)C(=O)O
Molecular target: Rat CRF2 a (corticotropin-releasing factor receptor 2), on the A7R5 rat aortic smooth muscle cell line (rat, UniProt P47866 20-411)
Test: cell-based or functional assay

Rat CRF2 a (corticotropin-releasing factor receptor 2), on the A7R5 rat aortic smooth muscle cell line, sequence (P47866 20-411): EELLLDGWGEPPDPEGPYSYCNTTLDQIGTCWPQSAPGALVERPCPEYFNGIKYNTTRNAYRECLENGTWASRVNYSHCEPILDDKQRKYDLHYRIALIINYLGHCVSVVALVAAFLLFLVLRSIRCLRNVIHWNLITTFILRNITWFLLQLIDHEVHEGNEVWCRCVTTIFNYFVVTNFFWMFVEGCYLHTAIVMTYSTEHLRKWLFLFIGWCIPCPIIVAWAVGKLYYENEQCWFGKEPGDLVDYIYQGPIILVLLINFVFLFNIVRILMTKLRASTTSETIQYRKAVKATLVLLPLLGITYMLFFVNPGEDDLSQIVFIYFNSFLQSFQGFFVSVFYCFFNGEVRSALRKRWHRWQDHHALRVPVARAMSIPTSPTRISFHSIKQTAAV

| Binder | EC50 [nM] 0% HSA (cAMP, A7R5 rat aortic smooth muscle cells) [nM] |
| --- | --- |
| [NMeI]VLSLD[dV]PIKLK([γGlu-C18 diacid])KILLEQEKQK[Aib]QREQAETN[Aib]QILAQV-NH2 (N-terminus assumed; SMILES CC[C@H](C)[C@H](NC)C(=O)N[C@H](C(=O)N[C@@H](CC(C)C)C(=O)N[C@@H](CO)C(=O)N[C@@H](CC(C)C)C(=O)N[C@@H](CC(=O)O)C(=O)N[C@@H](C(=O)N1CCC[C@H]1C(=O)N[C@H](C(=O)N[C@@H](CCCCN)C(=O)N[C@@H](CC(C)C)C(=O)N[C@@H](CCCCNC(=O)CC[C@H](NC(=O)CCCCCCCCCCCCCCCCC(=O)O)C(=O)O)C(=O)N[C@@H](CCCCN)C(=O)N[C@H](C(=O)N[C@@H](CC(C)C)C(=O)N[C@@H](CC(C)C)C(=O)N[C@@H](CCC(=O)O)C(=O)N[C@@H](CCC(N)=O)C(=O)N[C@@H](CCC(=O)O)C(=O)N[C@@H](CCCCN)C(=O)N[C@@H](CCC(N)=O)C(=O)N[C@@H](CCCCN)C(=O)NC(C)(C)C(=O)N[C@@H](CCC(N)=O)C(=O)N[C@@H](CCCNC(=N)N)C(=O)N[C@@H](CCC(=O)O)C(=O)N[C@@H](CCC(N)=O)C(=O)N[C@@H](C)C(=O)N[C@@H](CCC(=O)O)C(=O)N[C@H](C(=O)N[C@@H](CC(N)=O)C(=O)NC(C)(C)C(=O)N[C@@H](CCC(N)=O)C(=O)N[C@H](C(=O)N[C@@H](CC(C)C)C(=O)N[C@@H](C)C(=O)N[C@@H](CCC(N)=O)C(=O)N[C@H](C(N)=O)C(C)C)[C@@H](C)CC)[C@@H](C)O)[C@@H](C)CC)[C@@H](C)CC)C(C)C)C(C)C) [peptide of SEQ ID NO: 145] | 0.05 |
| [NMeI]VLSLD[dV]PIKLK([γGlu-C14 diacid])KILLEQEKQKKQREQAETN[Aib]QILAQV-NH2 [peptide of SEQ ID NO: 87] | 0.32 |
| Ac-IVLSLD[dV]PIKLK([γGlu-C18 diacid])KILLEQEKQKAQREQAETN[Aib]QILAQV-NH2 (SMILES CC[C@H](C)[C@H](NC(C)=O)C(=O)N[C@H](C(=O)N[C@@H](CC(C)C)C(=O)N[C@@H](CO)C(=O)N[C@@H](CC(C)C)C(=O)N[C@@H](CC(=O)O)C(=O)N[C@@H](C(=O)N1CCC[C@H]1C(=O)N[C@H](C(=O)N[C@@H](CCCCN)C(=O)N[C@@H](CC(C)C)C(=O)N[C@@H](CCCCNC(=O)CC[C@H](NC(=O)CCCCCCCCCCCCCCCCC(=O)O)C(=O)O)C(=O)N[C@@H](CCCCN)C(=O)N[C@H](C(=O)N[C@@H](CC(C)C)C(=O)N[C@@H](CC(C)C)C(=O)N[C@@H](CCC(=O)O)C(=O)N[C@@H](CCC(N)=O)C(=O)N[C@@H](CCC(=O)O)C(=O)N[C@@H](CCCCN)C(=O)N[C@@H](CCC(N)=O)C(=O)N[C@@H](CCCCN)C(=O)N[C@@H](C)C(=O)N[C@@H](CCC(N)=O)C(=O)N[C@@H](CCCNC(=N)N)C(=O)N[C@@H](CCC(=O)O)C(=O)N[C@@H](CCC(N)=O)C(=O)N[C@@H](C)C(=O)N[C@@H](CCC(=O)O)C(=O)N[C@H](C(=O)N[C@@H](CC(N)=O)C(=O)NC(C)(C)C(=O)N[C@@H](CCC(N)=O)C(=O)N[C@H](C(=O)N[C@@H](CC(C)C)C(=O)N[C@@H](C)C(=O)N[C@@H](CCC(N)=O)C(=O)N[C@H](C(N)=O)C(C)C)[C@@H](C)CC)[C@@H](C)O)[C@@H](C)CC)[C@@H](C)CC)C(C)C)C(C)C) [peptide of SEQ ID NO: 189] | 0.15 |
| [NMeI]VLSLD[dV]PIKLK([γGlu-C18 diacid])KILLEQEKQKAQREQAETN[Aib]QILAQV-NH2 (N-terminus assumed; SMILES CC[C@H](C)[C@H](NC)C(=O)N[C@H](C(=O)N[C@@H](CC(C)C)C(=O)N[C@@H](CO)C(=O)N[C@@H](CC(C)C)C(=O)N[C@@H](CC(=O)O)C(=O)N[C@@H](C(=O)N1CCC[C@H]1C(=O)N[C@H](C(=O)N[C@@H](CCCCN)C(=O)N[C@@H](CC(C)C)C(=O)N[C@@H](CCCCNC(=O)CC[C@H](NC(=O)CCCCCCCCCCCCCCCCC(=O)O)C(=O)O)C(=O)N[C@@H](CCCCN)C(=O)N[C@H](C(=O)N[C@@H](CC(C)C)C(=O)N[C@@H](CC(C)C)C(=O)N[C@@H](CCC(=O)O)C(=O)N[C@@H](CCC(N)=O)C(=O)N[C@@H](CCC(=O)O)C(=O)N[C@@H](CCCCN)C(=O)N[C@@H](CCC(N)=O)C(=O)N[C@@H](CCCCN)C(=O)N[C@@H](C)C(=O)N[C@@H](CCC(N)=O)C(=O)N[C@@H](CCCNC(=N)N)C(=O)N[C@@H](CCC(=O)O)C(=O)N[C@@H](CCC(N)=O)C(=O)N[C@@H](C)C(=O)N[C@@H](CCC(=O)O)C(=O)N[C@H](C(=O)N[C@@H](CC(N)=O)C(=O)NC(C)(C)C(=O)N[C@@H](CCC(N)=O)C(=O)N[C@H](C(=O)N[C@@H](CC(C)C)C(=O)N[C@@H](C)C(=O)N[C@@H](CCC(N)=O)C(=O)N[C@H](C(N)=O)C(C)C)[C@@H](C)CC)[C@@H](C)O)[C@@H](C)CC)[C@@H](C)CC)C(C)C)C(C)C) [peptide of SEQ ID NO: 144] | 0.06 |
| Pentanoyl-VLSLD[dV]PIKLK([γGlu-C14 diacid])KILLEQEKQKKQREQAETN[Aib]QILAQV-NH2 [peptide of SEQ ID NO: 86] | 0.68 |

Next, values leading:

| EC50 [nM] 0% HSA (cAMP, A7R5 rat aortic smooth muscle cells) [nM] | Binder |
| --- | --- |
| 0.04 | [NMeI]VLSLD[dV]PIKLK([γGlu-C20 diacid])KILLEQEKQK[Aib]QREQAETN[Aib]QILAQV-NH2 (N-terminus assumed; SMILES CC[C@H](C)[C@H](NC)C(=O)N[C@H](C(=O)N[C@@H](CC(C)C)C(=O)N[C@@H](CO)C(=O)N[C@@H](CC(C)C)C(=O)N[C@@H](CC(=O)O)C(=O)N[C@@H](C(=O)N1CCC[C@H]1C(=O)N[C@H](C(=O)N[C@@H](CCCCN)C(=O)N[C@@H](CC(C)C)C(=O)N[C@@H](CCCCNC(=O)CC[C@H](NC(=O)CCCCCCCCCCCCCCCCCCC(=O)O)C(=O)O)C(=O)N[C@@H](CCCCN)C(=O)N[C@H](C(=O)N[C@@H](CC(C)C)C(=O)N[C@@H](CC(C)C)C(=O)N[C@@H](CCC(=O)O)C(=O)N[C@@H](CCC(N)=O)C(=O)N[C@@H](CCC(=O)O)C(=O)N[C@@H](CCCCN)C(=O)N[C@@H](CCC(N)=O)C(=O)N[C@@H](CCCCN)C(=O)NC(C)(C)C(=O)N[C@@H](CCC(N)=O)C(=O)N[C@@H](CCCNC(=N)N)C(=O)N[C@@H](CCC(=O)O)C(=O)N[C@@H](CCC(N)=O)C(=O)N[C@@H](C)C(=O)N[C@@H](CCC(=O)O)C(=O)N[C@H](C(=O)N[C@@H](CC(N)=O)C(=O)NC(C)(C)C(=O)N[C@@H](CCC(N)=O)C(=O)N[C@H](C(=O)N[C@@H](CC(C)C)C(=O)N[C@@H](C)C(=O)N[C@@H](CCC(N)=O)C(=O)N[C@H](C(N)=O)C(C)C)[C@@H](C)CC)[C@@H](C)O)[C@@H](C)CC)[C@@H](C)CC)C(C)C)C(C)C) [peptide of SEQ ID NO: 215] |
| 0.08 | Ac-IVLSLD[dV]PIKLK([γGlu-C20 diacid])KILLEQEKQKAQREQAETN[Aib]QILAQV-NH2 (SMILES CC[C@H](C)[C@H](NC(C)=O)C(=O)N[C@H](C(=O)N[C@@H](CC(C)C)C(=O)N[C@@H](CO)C(=O)N[C@@H](CC(C)C)C(=O)N[C@@H](CC(=O)O)C(=O)N[C@@H](C(=O)N1CCC[C@H]1C(=O)N[C@H](C(=O)N[C@@H](CCCCN)C(=O)N[C@@H](CC(C)C)C(=O)N[C@@H](CCCCNC(=O)CC[C@H](NC(=O)CCCCCCCCCCCCCCCCCCC(=O)O)C(=O)O)C(=O)N[C@@H](CCCCN)C(=O)N[C@H](C(=O)N[C@@H](CC(C)C)C(=O)N[C@@H](CC(C)C)C(=O)N[C@@H](CCC(=O)O)C(=O)N[C@@H](CCC(N)=O)C(=O)N[C@@H](CCC(=O)O)C(=O)N[C@@H](CCCCN)C(=O)N[C@@H](CCC(N)=O)C(=O)N[C@@H](CCCCN)C(=O)N[C@@H](C)C(=O)N[C@@H](CCC(N)=O)C(=O)N[C@@H](CCCNC(=N)N)C(=O)N[C@@H](CCC(=O)O)C(=O)N[C@@H](CCC(N)=O)C(=O)N[C@@H](C)C(=O)N[C@@H](CCC(=O)O)C(=O)N[C@H](C(=O)N[C@@H](CC(N)=O)C(=O)NC(C)(C)C(=O)N[C@@H](CCC(N)=O)C(=O)N[C@H](C(=O)N[C@@H](CC(C)C)C(=O)N[C@@H](C)C(=O)N[C@@H](CCC(N)=O)C(=O)N[C@H](C(N)=O)C(C)C)[C@@H](C)CC)[C@@H](C)O)[C@@H](C)CC)[C@@H](C)CC)C(C)C)C(C)C) [peptide of SEQ ID NO: 212] |
| 0.06 | Ac-IVLSLD[dV]PIKLK([γGlu-C20 diacid])KILLEQEKQKKQREQAETN[Aib]QILAQV-NH2 (SMILES CC[C@H](C)[C@H](NC(C)=O)C(=O)N[C@H](C(=O)N[C@@H](CC(C)C)C(=O)N[C@@H](CO)C(=O)N[C@@H](CC(C)C)C(=O)N[C@@H](CC(=O)O)C(=O)N[C@@H](C(=O)N1CCC[C@H]1C(=O)N[C@H](C(=O)N[C@@H](CCCCN)C(=O)N[C@@H](CC(C)C)C(=O)N[C@@H](CCCCNC(=O)CC[C@H](NC(=O)CCCCCCCCCCCCCCCCCCC(=O)O)C(=O)O)C(=O)N[C@@H](CCCCN)C(=O)N[C@H](C(=O)N[C@@H](CC(C)C)C(=O)N[C@@H](CC(C)C)C(=O)N[C@@H](CCC(=O)O)C(=O)N[C@@H](CCC(N)=O)C(=O)N[C@@H](CCC(=O)O)C(=O)N[C@@H](CCCCN)C(=O)N[C@@H](CCC(N)=O)C(=O)N[C@@H](CCCCN)C(=O)N[C@@H](CCCCN)C(=O)N[C@@H](CCC(N)=O)C(=O)N[C@@H](CCCNC(=N)N)C(=O)N[C@@H](CCC(=O)O)C(=O)N[C@@H](CCC(N)=O)C(=O)N[C@@H](C)C(=O)N[C@@H](CCC(=O)O)C(=O)N[C@H](C(=O)N[C@@H](CC(N)=O)C(=O)NC(C)(C)C(=O)N[C@@H](CCC(N)=O)C(=O)N[C@H](C(=O)N[C@@H](CC(C)C)C(=O)N[C@@H](C)C(=O)N[C@@H](CCC(N)=O)C(=O)N[C@H](C(N)=O)C(C)C)[C@@H](C)CC)[C@@H](C)O)[C@@H](C)CC)[C@@H](C)CC)C(C)C)C(C)C) [peptide of SEQ ID NO: 206] |

Source: US20260001928A1 (CORTERIA PHARMACEUTICALS, priority 2022, published 2026)
